Columns and labels:
Assay in all cases: cell-based or functional assay
[1] = molecular target: HA of wild type A/Shanghai/1/2013 (H7N9) virus (influenza A virus A/Shanghai/1/2013 …)
[2] = molecular target: HA of A/chicken/Jalisco/12283/12 (H7N3) virus (influenza A virus …)
[3] = molecular target: HA of A/California/04/2009 (H1N1) virus (influenza A virus A/California/04/2009 …)

B1: 045-051310-2B06 (antibody, V domains shown)
VH: QVQLVQSGPEMKKPGASVKVSCKTSGYRFTRYGISWVRQAPGRGLEWLGWISAYSGDTYYGQKFQDRVTMTTDRATSTAYMELRNLGSDDSAVYFCARDHVQGEVSIYYYAMDVWGEGTTVTVSS
VL: EIVLTQSPATLSLSPGERVTLSCRASESVGNKLAWFQQRPGQAPRLLIYNASNRATDIPARFSGSGSGTDFTLTISSLQPEDFAVYYCQQRGTWPRGLITFGQGTRLEIK
PRNT50 (plaque reduction assay) [1]: 19 µg/mL | PRNT50 (plaque reduction assay) [2]: 18 µg/mL | PRNT50 (plaque reduction assay) [3]: 5.5 µg/mL
